# Results: patent US20110274697A1, “NOVEL USES” (priority 2009, published 2011)
# Experiments:
# [1] = biological target: T1, CD20 on JVM-3 cells (Homo sapiens, UniProt P11836); experiment: FACS binding of fluorescently labeled anti-CD20 antibodies to JVM-3 cells; details: fluorescently labeled antibody, BD FACSCanto, FIG. 2
# T1 construct: medium level expression profile of CD20 on JVM-3 cells; endogenous in cells; host or cells: JVM-3 cells
# T1 sequence (P11836 1-297): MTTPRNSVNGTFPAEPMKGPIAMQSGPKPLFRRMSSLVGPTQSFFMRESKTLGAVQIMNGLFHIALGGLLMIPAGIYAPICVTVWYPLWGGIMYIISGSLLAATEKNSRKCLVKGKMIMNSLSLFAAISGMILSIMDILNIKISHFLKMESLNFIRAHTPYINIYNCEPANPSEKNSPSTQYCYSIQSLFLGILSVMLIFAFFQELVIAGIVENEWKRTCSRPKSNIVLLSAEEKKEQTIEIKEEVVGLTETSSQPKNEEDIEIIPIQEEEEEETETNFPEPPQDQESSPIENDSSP
# Experimental: One microgram of each antibody was prepared in PBS and five microliters of the Zenon human IgG labeling reagent (Component A) was added to the antibody solution. The mixture was incubated for five minutes at room temperature and then five microliters of the Zenon blocking reagent (Component B) was added to the reaction mixture. After another five minutes at room temperature the complexes were ready to be used. 5×10^6 cells/ml of viable JVM-3 cells were resuspended in PBS. 100 ul of the cells were added to each tube. 10 ul of human IgG was added to block non-specific binding. The cells and human IgG were incubated for 10 minutes. […] The mixture was incubated for an additional 30 minutes on ice in the dark. Then 500 ul of PBS was added to the cells and they were centrifuged for 5 minutes at 1000 rpm. The supernatant was removed and 500 ul of PBS was added and the cells were centrifuged again. Again the supernatant was removed and the cells resuspended in 300 ul of PBS. The cells were analyzed on a BD FACSCanto.
# [2] = tested on: cells with low CD20 density; details: compared to rituximab; especially in cells with low CD20 density, as in CLL; cited from earlier work
substance,measurement,setting,value
"ofatumumab: new generation, human monoclonal antibody that targets a membrane proximal, small loop epitope of the CD20 molecule; 2F2 antibody in WO2004/035607",receptor bound on the cell surface,[1],bound more receptors on the cell surface than rituxan antibody did
same,induction of tumor cell lysis by CDC activity,[2],superior induction of tumor cell lysis by CDC
